In one test the target is C5a receptor (human) (UniProt P21730). The test can be described thus: cell-based or functional assay.
The target of test [1] is T1, human formyl peptide receptor like-1 (FPRL-1) receptor (human, UniProt P25090 1-351).
T1 sequence (looked up): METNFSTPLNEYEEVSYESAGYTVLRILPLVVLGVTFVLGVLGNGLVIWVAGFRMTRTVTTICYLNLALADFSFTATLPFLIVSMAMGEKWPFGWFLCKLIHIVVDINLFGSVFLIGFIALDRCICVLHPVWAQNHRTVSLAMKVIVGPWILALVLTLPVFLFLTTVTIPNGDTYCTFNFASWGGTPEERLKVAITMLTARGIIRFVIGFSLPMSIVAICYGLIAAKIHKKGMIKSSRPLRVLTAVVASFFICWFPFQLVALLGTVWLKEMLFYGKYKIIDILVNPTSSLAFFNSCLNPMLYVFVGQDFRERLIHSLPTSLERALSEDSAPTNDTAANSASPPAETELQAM
Description: cell-based or functional assay.

Sequence of C5a receptor (human) (P21730 whole entry): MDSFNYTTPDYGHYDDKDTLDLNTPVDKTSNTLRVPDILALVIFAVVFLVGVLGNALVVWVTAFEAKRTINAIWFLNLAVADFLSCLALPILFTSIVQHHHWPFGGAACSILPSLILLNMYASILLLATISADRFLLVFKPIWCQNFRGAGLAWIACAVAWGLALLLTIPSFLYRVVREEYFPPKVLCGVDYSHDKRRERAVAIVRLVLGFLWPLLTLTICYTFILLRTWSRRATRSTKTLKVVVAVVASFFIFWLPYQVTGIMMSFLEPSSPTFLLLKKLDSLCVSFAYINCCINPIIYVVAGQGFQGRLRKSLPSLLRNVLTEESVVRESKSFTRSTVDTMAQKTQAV

In the test with C5a receptor (human), “native C5a ligand (from UniProt P01031 678-751)” yielded a fold increase in lacZ expression (fus1:lacZ, autocrine yeast) of 8 to 12 fold.

For the molecule SLLWLTCRPWEAM [peptide A5, Ser-Leu-Leu-Trp-Leu-Thr-Cys-Arg-Pro-Trp-Glu-Ala-Met], in test [1], the “fold stimulation of β-galactosidase (fus1-lacZ) over background” value stood at 8 fold.
